According to doi:10.1101/2025.06.11.659033 (bioRxiv, 2025):
Like-named read-outs stand apart in the source and are kept apart here.

B1: HDPpf-C10 (Δ44N, C-terminal 6His) (domain or fragment, Plasmodium falciparum, UniProt Q8IL04 45-205, looked up)
chain: KPVKRTIINLIYSHNELKIFSNLLNHPTVGSSLIHELSLDGPYTAFFPSNEAMQLINIESFNKLYNDENKLSEFVLNHVTKEYWLYRDLYGSSYQPWLMYNEKREAPEKLRNLLNNDLIVKIEGEFKHCNHSIYLNGSKIIRPNMKCHNGVVHIVDKPIIF
B2: HDPpf-N4 (Δ37N, 3 C-terminal residues deleted) (domain or fragment, Plasmodium falciparum, UniProt Q8IL04 38-202, looked up)
chain: VYWCFEHKPVKRTIINLIYSHNELKIFSNLLNHPTVGSSLIHELSLDGPYTAFFPSNEAMQLINIESFNKLYNDENKLSEFVLNHVTKEYWLYRDLYGSSYQPWLMYNEKREAPEKLRNLLNNDLIVKIEGEFKHCNHSIYLNGSKIIRPNMKCHNGVVHIVDKP

Key:
SEC [1] = target: the molecule itself; assay: SEC
SEC [2] = target: the molecule itself; assay: SEC; remark: listed apart in the source

Row | Protein | stoichiometry N (SEC [1]) | stoichiometry N (SEC [2])
1 | B1 | 2 | 
2 | B2 |  | 2
